Source: patent publication US6660837 (KIRIN BEER, dated 2003)

Columns and labels:
[1] = target: T1, PKN purified from rat testis cytosol (rat, UniProt Q63433 2-946, limits assumed); assay: cell-based or functional assay
[2] = target: catalytic subunit of bovine heart PKA (bovine, UniProt P00517 2-351); assay: cell-based or functional assay
[3] = target: T1, PKN purified from rat testis cytosol; assay: apparent Ki from kinase kinetics with δPKC peptide substrate; double-reciprocal plots and secondary plot of Km/Vmax
[4] = target: T2, LexA DNA binding domain fused to PKNN1 (amino acid sequence 1-540 of PKN), pBTM/PKNN1 (human, UniProt P0A7C2 1-202 (Escherichia coli entry)); assay: yeast two-hybrid, lacZ expression in L40 cells
T2 construct: also called LexAbd-PKN; LexA-PKNN1
T2 sequence (P0A7C2 other isoform, or with tags, fused parts or gaps limits assumed): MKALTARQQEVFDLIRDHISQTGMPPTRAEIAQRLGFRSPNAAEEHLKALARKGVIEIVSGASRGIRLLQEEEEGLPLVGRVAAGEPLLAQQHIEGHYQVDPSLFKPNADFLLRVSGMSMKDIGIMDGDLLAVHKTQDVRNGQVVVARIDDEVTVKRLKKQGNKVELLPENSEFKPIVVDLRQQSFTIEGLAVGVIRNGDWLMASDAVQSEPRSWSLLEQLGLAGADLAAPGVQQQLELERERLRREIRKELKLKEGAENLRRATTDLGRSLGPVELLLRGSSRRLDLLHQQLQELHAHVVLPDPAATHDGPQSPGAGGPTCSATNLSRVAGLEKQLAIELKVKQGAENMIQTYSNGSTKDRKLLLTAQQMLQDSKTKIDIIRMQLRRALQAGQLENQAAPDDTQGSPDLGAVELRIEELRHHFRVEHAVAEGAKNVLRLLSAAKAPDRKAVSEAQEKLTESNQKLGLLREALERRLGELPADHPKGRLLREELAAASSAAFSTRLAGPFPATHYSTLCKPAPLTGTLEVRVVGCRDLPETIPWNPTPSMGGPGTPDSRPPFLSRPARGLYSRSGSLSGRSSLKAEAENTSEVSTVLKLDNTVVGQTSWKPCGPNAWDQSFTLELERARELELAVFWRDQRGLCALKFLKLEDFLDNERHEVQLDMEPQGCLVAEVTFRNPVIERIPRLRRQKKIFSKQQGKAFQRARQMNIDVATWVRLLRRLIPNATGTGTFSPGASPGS

[5] = target: T3, PKNN2 (N-terminal region of PKN, amino acid sequence 1-474), 35S-labeled, in vitro translated (human, UniProt Q16512 1-474, [35S]methionine label); assay: GST pull-down of 35S-labeled in vitro translated PKNN2
T3 construct: also called in vitro translated PKN-N; PKN prepared by in vitro translation
T3 sequence (Q16512 1-474): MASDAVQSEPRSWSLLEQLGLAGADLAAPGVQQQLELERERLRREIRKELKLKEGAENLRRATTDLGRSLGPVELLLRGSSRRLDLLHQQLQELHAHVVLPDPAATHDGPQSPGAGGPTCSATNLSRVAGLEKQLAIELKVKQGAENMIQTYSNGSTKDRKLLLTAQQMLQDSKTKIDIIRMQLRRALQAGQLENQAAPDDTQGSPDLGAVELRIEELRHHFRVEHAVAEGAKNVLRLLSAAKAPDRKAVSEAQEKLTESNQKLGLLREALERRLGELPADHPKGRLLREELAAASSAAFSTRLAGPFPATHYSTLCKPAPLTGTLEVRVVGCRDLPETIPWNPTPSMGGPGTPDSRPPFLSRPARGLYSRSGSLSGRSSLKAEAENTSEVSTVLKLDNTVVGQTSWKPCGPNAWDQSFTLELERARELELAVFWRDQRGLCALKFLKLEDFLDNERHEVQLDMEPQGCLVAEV

[6] = target: T4, Gal4 DNA-binding domain fused to PKNN1 (amino acid sequence 1-540 of PKN), pGBT9 (human, UniProt P04386 1-147 (Saccharomyces cerevisiae entry)); assay: yeast two-hybrid library screen, HIS3 and β-galactosidase
T4 construct: range 1-147; also called Gal4bd-PKN

[7] = target: RhoA^Val14CLVL^- fused to the VP16 activation domain (human, UniProt P06492 413-490; P61586 1-189); assay: yeast two-hybrid with truncated PKN

With RERLRREIRKELKLK [PKN (39-53) peptide] the “IC50 (inhibition of δPKC peptide phosphorylation by PKN)” value [1] was ~80 µM, the “IC50 (inhibition of Kemptide phosphorylation by PKA)” value [2] was ≥ 1000 µM and the Ki [3] was 41 µM.

B1: VP16 transcription activation domain fused to the head-rod domain of NFM, pVP/NFMhr (other)
chain: MSYTLDSLGNPSAYRRVTETRSSFSRVSGSPSSGFRSQSWSRGSPSTVSSSYKRSMLAPRLAYSSAMLSSAESSLDFSQSSSLLNGGSGPGGDYKLSRSNEKEQLQGLNDRFAGYIEKVHYLEQQNKEIEAEIQALRQKQASHAQLGDAYDQEIRELRATLEMVNHEKAQVQLDSDHLEEDIHRLKERFEEEARLRDDTEAAIRALRKDIEEASLVKVELDKKVQSLQDEVAFLRSNHEEEVADLLAQIQASHITVERKDYLKTDISTALKEIRSQLESHSDQNMHQAEEWFKCRYAKLTEAAEQNKEAIRSAKEEIAEYRRQLQSKSIELESVRGTKESLERQLSDIEERHNHDLSSYQDTIQQLENELRGTKWEMARHLREYQDLLNVKMALDIEIAAYRKLLEGEETR
notes: range 1-411
B1: binds [4].

B2: GST-HuActSkl (837-894) (other, human, UniProt P35609 837-894, looked up)
chain: ILASDKPYILAEELRRELPPDQAQYCIKRMPAYSGPGSVPGALDYAAFSSALYGESDL
notes: not shown: glutathione S-transferase (GST) tag
B2: no binding [5].

B3: VP16 transcription activation domain fused to the head-rod domain of human NFL (amino acid sequence 1-349), pVP/NFL#21 (other)
chain: MSSFSYEPYYSTSYKRRYVETPRVHISSVRSGYSTARSAYSSYSAPVSSSLSVRRSYSSSSGSLMPSLENLDLSQVAAISNDLKSIRTQEKAQLQDLNDRFASFIERVHELEQQNKVLEAELLVLRQKHSEPSRFRALYEQEIRDLRLAAEDATNEKQALQGEREGLEETLRNLQARYEEEVLSREDAEGRLMEARKGADEAALARAELEKRIDSLMDEISFLKKVHEEEIAELQAQIQYAQISVEMDVTKPDLSAALKDIRAQYEKLAAKNMQNAEEWFKSRFTVLTESAAKNTDAVRAAKDEVSESRRLLKAKTLEIEACRGMNEALEKQLQELEDKQNADISAMQD
notes: range 1-349
B3: binds [4].

B4: Gal4 activation domain fusion of library clone #21 (head-rod domain of human NFL, amino acid sequence 1-349), pGAD10-NFL#21 (other, UniProt P07196 1-349, looked up, not shown: large carriers)
chain: B3 chain
notes: range 1-349; also called clone#21 protein; plasmid #21
B4: binds [6].

B5: GST-HuActSkl (604-719) (other, human, UniProt P35609 604-719, looked up)
chain: MDELRTKWDKVKQLVPIRDQSLQEELARQHANERLRRQFAAQANAIGPWIQNKMEEIARSSIQITGALEDQMNQLKQYEHNIINYKNNIDKLEGDHQLIQEALVFDNKHTNYTMEH
notes: as for B2
B5: no binding [5].

B6: truncated PKN, amino acid sequence 3-135, two-hybrid fusion (other)
chain: SDAVQSEPRSWSLLEQLGLAGADLAAPGVQQQLELERERLRREIRKELKLKEGAENLRRATTDLGRSLGPVELLLRGSSRRLDLLHQQLQELHAHVVLPDPAATHDGPQSPGAGGPTCSATNLSRVAGLEKQL
notes: also called PKN 3-135
B6: binds [7].
